According to the Human Domainome abundance scans (Beltran et al. 2025):
± gives the uncertainty stated by the source.

B1: Double-stranded RNA-specific adenosine deaminase, residues 296 to 358; numbered along this chain, P55265 (parent)
chain: MAEIKEKICDYLFNVSDSSALNLAKNIGLTKARDINAVLIDMERQGDVYRQGTTPPIWHLTDK

Variants of: B1
Test: abundance fitness (aPCA) (normalised: wild type 0, dead -1); higher = more abundant; growth selection in yeast, the domain comes from the species named
Details: Homo sapiens
With MAEIKEKICDYLFNVSDSSELNLAKNIGLTKARDINAVLIDMERQGDVYRQGTTPPIWHLTDK the abundance fitness was -0.216 ± 0.098. Variant MAEIKEKICDYLFNVSDSSFLNLAKNIGLTKARDINAVLIDMERQGDVYRQGTTPPIWHLTDK has an abundance fitness of -0.311 ± 0.071. MAEIKEKICDYLFNVSDSSGLNLAKNIGLTKARDINAVLIDMERQGDVYRQGTTPPIWHLTDK showed an abundance fitness of -0.45 ± 0.055. MAEIKEKICDYLFNVSDSSHLNLAKNIGLTKARDINAVLIDMERQGDVYRQGTTPPIWHLTDK showed an abundance fitness of -0.578 ± 0.091. Variant MAEIKEKICDYLFNVSDSSILNLAKNIGLTKARDINAVLIDMERQGDVYRQGTTPPIWHLTDK has an abundance fitness of -0.68 ± 0.12. Work on MAEIKEKICDYLFNVSDSSKLNLAKNIGLTKARDINAVLIDMERQGDVYRQGTTPPIWHLTDK yielded an abundance fitness of -0.606 ± 0.083. Work on MAEIKEKICDYLFNVSDSSLLNLAKNIGLTKARDINAVLIDMERQGDVYRQGTTPPIWHLTDK yielded an abundance fitness of -0.42 ± 0.057. MAEIKEKICDYLFNVSDSSNLNLAKNIGLTKARDINAVLIDMERQGDVYRQGTTPPIWHLTDK gave an abundance fitness of -0.481 ± 0.19. For MAEIKEKICDYLFNVSDSSPLNLAKNIGLTKARDINAVLIDMERQGDVYRQGTTPPIWHLTDK, the abundance fitness was -0.673 ± 0.1. In the case of MAEIKEKICDYLFNVSDSSQLNLAKNIGLTKARDINAVLIDMERQGDVYRQGTTPPIWHLTDK, the abundance fitness is reported as -0.472 ± 0.094. Work on MAEIKEKICDYLFNVSDSSRLNLAKNIGLTKARDINAVLIDMERQGDVYRQGTTPPIWHLTDK yielded an abundance fitness of -0.615 ± 0.051. MAEIKEKICDYLFNVSDSSSLNLAKNIGLTKARDINAVLIDMERQGDVYRQGTTPPIWHLTDK gave an abundance fitness of -0.228 ± 0.052. Variant MAEIKEKICDYLFNVSDSSTLNLAKNIGLTKARDINAVLIDMERQGDVYRQGTTPPIWHLTDK has an abundance fitness of -0.295 ± 0.065. MAEIKEKICDYLFNVSDSSVLNLAKNIGLTKARDINAVLIDMERQGDVYRQGTTPPIWHLTDK showed an abundance fitness of -0.446 ± 0.056. With MAEIKEKICDYLFNVSDSSWLNLAKNIGLTKARDINAVLIDMERQGDVYRQGTTPPIWHLTDK the abundance fitness was -0.627 ± 0.076. MAEIKEKICDYLFNVSDSSYLNLAKNIGLTKARDINAVLIDMERQGDVYRQGTTPPIWHLTDK gave an abundance fitness of -0.901 ± 0.19. Work on MAEIKEKICDYLFNVSDSSAANLAKNIGLTKARDINAVLIDMERQGDVYRQGTTPPIWHLTDK yielded an abundance fitness of 0.263 ± 0.068. MAEIKEKICDYLFNVSDSSACNLAKNIGLTKARDINAVLIDMERQGDVYRQGTTPPIWHLTDK gave an abundance fitness of -0.136 ± 0.056. MAEIKEKICDYLFNVSDSSADNLAKNIGLTKARDINAVLIDMERQGDVYRQGTTPPIWHLTDK gave an abundance fitness of 0.339 ± 0.083. Work on MAEIKEKICDYLFNVSDSSAENLAKNIGLTKARDINAVLIDMERQGDVYRQGTTPPIWHLTDK yielded an abundance fitness of 0.476 ± 0.063. With MAEIKEKICDYLFNVSDSSAGNLAKNIGLTKARDINAVLIDMERQGDVYRQGTTPPIWHLTDK the abundance fitness was 0.009 ± 0.052. With MAEIKEKICDYLFNVSDSSAHNLAKNIGLTKARDINAVLIDMERQGDVYRQGTTPPIWHLTDK the abundance fitness was -0.046 ± 0.092. Variant MAEIKEKICDYLFNVSDSSAINLAKNIGLTKARDINAVLIDMERQGDVYRQGTTPPIWHLTDK has an abundance fitness of -0.044 ± 0.12. With MAEIKEKICDYLFNVSDSSAMNLAKNIGLTKARDINAVLIDMERQGDVYRQGTTPPIWHLTDK the abundance fitness was 0.029 ± 0.11. MAEIKEKICDYLFNVSDSSANNLAKNIGLTKARDINAVLIDMERQGDVYRQGTTPPIWHLTDK showed an abundance fitness of 0.067 ± 0.079. Work on MAEIKEKICDYLFNVSDSSAQNLAKNIGLTKARDINAVLIDMERQGDVYRQGTTPPIWHLTDK yielded an abundance fitness of 0.158 ± 0.095. Variant MAEIKEKICDYLFNVSDSSARNLAKNIGLTKARDINAVLIDMERQGDVYRQGTTPPIWHLTDK has an abundance fitness of -0.02 ± 0.046. In the case of MAEIKEKICDYLFNVSDSSASNLAKNIGLTKARDINAVLIDMERQGDVYRQGTTPPIWHLTDK, the abundance fitness is reported as 0.05 ± 0.049. For MAEIKEKICDYLFNVSDSSATNLAKNIGLTKARDINAVLIDMERQGDVYRQGTTPPIWHLTDK, the abundance fitness was 0.125 ± 0.063. MAEIKEKICDYLFNVSDSSAVNLAKNIGLTKARDINAVLIDMERQGDVYRQGTTPPIWHLTDK gave an abundance fitness of -0.015 ± 0.052. MAEIKEKICDYLFNVSDSSAWNLAKNIGLTKARDINAVLIDMERQGDVYRQGTTPPIWHLTDK showed an abundance fitness of -0.071 ± 0.067. Variant MAEIKEKICDYLFNVSDSSAYNLAKNIGLTKARDINAVLIDMERQGDVYRQGTTPPIWHLTDK has an abundance fitness of -0.111 ± 0.069. In the case of MAEIKEKICDYLFNVSDSSALALAKNIGLTKARDINAVLIDMERQGDVYRQGTTPPIWHLTDK, the abundance fitness is reported as -0.297 ± 0.12. Variant MAEIKEKICDYLFNVSDSSALDLAKNIGLTKARDINAVLIDMERQGDVYRQGTTPPIWHLTDK has an abundance fitness of 0.004 ± 0.093. Variant MAEIKEKICDYLFNVSDSSALELAKNIGLTKARDINAVLIDMERQGDVYRQGTTPPIWHLTDK has an abundance fitness of 0.165 ± 0.083. MAEIKEKICDYLFNVSDSSALGLAKNIGLTKARDINAVLIDMERQGDVYRQGTTPPIWHLTDK gave an abundance fitness of -0.314 ± 0.087. Variant MAEIKEKICDYLFNVSDSSALHLAKNIGLTKARDINAVLIDMERQGDVYRQGTTPPIWHLTDK has an abundance fitness of -0.117 ± 0.17. With MAEIKEKICDYLFNVSDSSALILAKNIGLTKARDINAVLIDMERQGDVYRQGTTPPIWHLTDK the abundance fitness was -0.339 ± 0.12. For MAEIKEKICDYLFNVSDSSALKLAKNIGLTKARDINAVLIDMERQGDVYRQGTTPPIWHLTDK, the abundance fitness was -0.424 ± 0.084. Variant MAEIKEKICDYLFNVSDSSALLLAKNIGLTKARDINAVLIDMERQGDVYRQGTTPPIWHLTDK has an abundance fitness of -0.479 ± 0.042. Work on MAEIKEKICDYLFNVSDSSALMLAKNIGLTKARDINAVLIDMERQGDVYRQGTTPPIWHLTDK yielded an abundance fitness of -0.493 ± 0.1. In the case of MAEIKEKICDYLFNVSDSSALPLAKNIGLTKARDINAVLIDMERQGDVYRQGTTPPIWHLTDK, the abundance fitness is reported as -0.219 ± 0.18.
